Assay results as given in patent CN108101990A (UNIV ZHEJIANG, dated 2018).

Target: T1, 人Tim-3胞外区 (human, UniProt Q8TDQ0 22-202)
T1 construct: extracellular domain; also called T细胞免疫球蛋白黏蛋白分子3
T1 sequence (looked up): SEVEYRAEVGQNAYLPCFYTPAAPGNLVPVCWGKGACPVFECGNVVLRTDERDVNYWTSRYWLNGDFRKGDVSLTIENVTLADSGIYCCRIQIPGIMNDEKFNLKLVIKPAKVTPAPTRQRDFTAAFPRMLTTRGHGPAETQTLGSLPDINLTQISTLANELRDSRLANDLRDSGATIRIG
Test: hybridoma screening, indirect ELISA

binding result: binds
B1: 抗人Tim-3单克隆抗体CDT1 (antibody, V domains shown)
VH: VKLQESGGGLVQPGGSLRLSCATSGFTFTDYYMSWVRQPPGKALEWLGFIRNKANGYTTEYSASVKGRFTISRDYSQSILYLQMNTLTAEDSATYFCARDLDYWGQGTTVTVSS
VL: NIMMTQSPSSLAVSAGEKVTMSCKSSQSVLYSSNQKNFLAWYQQKPGQSPELLIYWASTRVSGVPDRFTGSGSGTDFTLTISNVQAEDLAVYYCHQYLSLRTFGGGTKLEI
notes: also called CDT1抗体
